# Assay results taken from FireProtDB (doi:10.1016/0022-2836(92)90907-2).
# B1: Ribonuclease wild type, P00648 (protein)
# chain: MMKMEGIALKKRLSWISVCLLVLVSAAGMLFSTAAKTETSSHKAHTEAQVINTFDGVADYLQTYHKLPDNYITKSEAQALGWVASKGNLADVAPGKSIGGDIFSNREGKLPGKSGRTWREADINYTSGFRNSDRILYSSDWLIYKTTDHYQTFTKIR
# Conditions: Bacillus amyloliquefaciens; pH 6.3; 25 °C; Urea; Fluorescence; MES 450 mM; reversible: yes; whole UniProt chain shown
protein,measurement,value
B1,denaturant m value,1.92 kcal/mol/M
same,denaturant midpoint (higher = more stable),4.6 M
same,unfolding free energy,8.83 kcal/mol
